Laboratory results published in PMC10233381.

Target: Myc-PUM1-R1147W (human) (UniProt Q14671)
Assay: co-IP; HEK293T co-transfected with Myc-PUM1 (WT or mutant) and a GST-tagged protein (250 ng each), 48 h; IP with anti-Myc, immunoblot with anti-GST; quantified against Myc-PUM1-WT; called in vitro by the paper

UniProt Q14671, sequence (Q14671 other isoform, or with tags, fused parts or gaps R1147W): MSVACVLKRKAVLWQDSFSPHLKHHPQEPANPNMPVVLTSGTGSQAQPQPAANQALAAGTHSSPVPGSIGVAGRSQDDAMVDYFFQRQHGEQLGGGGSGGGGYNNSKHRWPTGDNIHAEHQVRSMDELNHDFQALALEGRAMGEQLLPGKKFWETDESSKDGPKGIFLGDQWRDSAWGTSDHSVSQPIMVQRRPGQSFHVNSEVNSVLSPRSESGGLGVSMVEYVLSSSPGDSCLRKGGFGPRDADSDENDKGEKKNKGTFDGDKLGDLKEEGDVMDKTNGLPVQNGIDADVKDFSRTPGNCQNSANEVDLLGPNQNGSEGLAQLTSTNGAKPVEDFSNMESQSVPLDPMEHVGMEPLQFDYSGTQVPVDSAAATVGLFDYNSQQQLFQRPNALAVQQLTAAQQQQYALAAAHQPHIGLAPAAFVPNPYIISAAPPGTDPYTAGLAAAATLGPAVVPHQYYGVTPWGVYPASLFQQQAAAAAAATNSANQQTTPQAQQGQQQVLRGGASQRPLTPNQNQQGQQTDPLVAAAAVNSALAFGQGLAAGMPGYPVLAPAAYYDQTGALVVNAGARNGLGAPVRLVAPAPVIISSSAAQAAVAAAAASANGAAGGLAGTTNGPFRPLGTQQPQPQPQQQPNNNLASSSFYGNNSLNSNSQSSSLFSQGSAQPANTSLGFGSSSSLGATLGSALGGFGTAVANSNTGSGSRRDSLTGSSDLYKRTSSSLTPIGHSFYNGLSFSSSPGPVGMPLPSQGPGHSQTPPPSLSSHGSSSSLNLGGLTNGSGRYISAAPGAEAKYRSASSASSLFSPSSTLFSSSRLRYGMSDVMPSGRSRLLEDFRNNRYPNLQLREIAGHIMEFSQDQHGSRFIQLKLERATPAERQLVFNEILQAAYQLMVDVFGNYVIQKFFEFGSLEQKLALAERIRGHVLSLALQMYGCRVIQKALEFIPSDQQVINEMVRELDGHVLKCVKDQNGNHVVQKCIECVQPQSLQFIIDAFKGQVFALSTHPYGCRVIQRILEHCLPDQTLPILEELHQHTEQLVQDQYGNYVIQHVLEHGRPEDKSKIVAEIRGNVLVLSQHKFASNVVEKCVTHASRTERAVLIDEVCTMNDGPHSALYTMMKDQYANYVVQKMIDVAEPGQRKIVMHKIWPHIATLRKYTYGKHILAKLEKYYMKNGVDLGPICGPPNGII

- percent by which the interaction was diminished: 35%
Substance: GST-CNOT1 (from UniProt A5YKK6 1-2376) (natural protein)
